According to publication PMC11567960:

How the values were obtained:
[1] = molecular target: human CD47 recombinant protein (human) (UniProt Q08722); assay: ELISA
[2] = molecular target: cynomolgus monkey CD47 recombinant protein (cynomolgus monkey); assay: ELISA

UniProt Q08722, sequence (Q08722 19-323): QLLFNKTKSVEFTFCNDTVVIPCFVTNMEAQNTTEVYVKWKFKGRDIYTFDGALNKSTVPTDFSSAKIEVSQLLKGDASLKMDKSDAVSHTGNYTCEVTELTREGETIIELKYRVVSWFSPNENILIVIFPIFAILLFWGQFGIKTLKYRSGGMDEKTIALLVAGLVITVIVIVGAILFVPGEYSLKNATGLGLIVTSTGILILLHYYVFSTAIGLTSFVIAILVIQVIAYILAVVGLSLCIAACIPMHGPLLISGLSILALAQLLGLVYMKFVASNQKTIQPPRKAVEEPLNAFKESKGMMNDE

HX009 (bispecific antibody)
EC50 [1]: 0.59 nM
EC50 [2]: 1.02 nM
